Results reported in patent publication US20160002326A1 (AbbVie / Abbott, published 2016).

Experiments:
Test in all cases: direct ELISA
RANK ligand = target: T1, RANK ligand (UniProt O14788 140-317)
T1 sequence (looked up): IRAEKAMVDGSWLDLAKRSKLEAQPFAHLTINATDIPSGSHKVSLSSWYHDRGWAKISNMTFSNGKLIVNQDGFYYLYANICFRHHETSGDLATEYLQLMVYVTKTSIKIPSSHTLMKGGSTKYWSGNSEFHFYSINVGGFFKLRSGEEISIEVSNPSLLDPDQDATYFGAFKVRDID

OX40 ligand = target: T2, OX40 ligand (UniProt P23510 51-183)
T2 sequence (looked up): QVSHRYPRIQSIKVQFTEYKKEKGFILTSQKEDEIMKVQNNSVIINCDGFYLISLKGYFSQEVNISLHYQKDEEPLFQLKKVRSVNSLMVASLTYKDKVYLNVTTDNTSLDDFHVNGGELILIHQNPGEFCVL

TWEAK = target: T3, TWEAK (UniProt O43508 94-249, limits assumed)
T3 sequence (looked up): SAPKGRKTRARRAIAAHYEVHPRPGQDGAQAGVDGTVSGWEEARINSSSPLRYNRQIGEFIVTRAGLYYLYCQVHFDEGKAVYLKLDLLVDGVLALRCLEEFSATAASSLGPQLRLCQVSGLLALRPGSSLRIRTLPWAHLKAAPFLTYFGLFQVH

CD30 ligand = target: T4, CD30 ligand (UniProt P32971 63-234)
T4 sequence (looked up): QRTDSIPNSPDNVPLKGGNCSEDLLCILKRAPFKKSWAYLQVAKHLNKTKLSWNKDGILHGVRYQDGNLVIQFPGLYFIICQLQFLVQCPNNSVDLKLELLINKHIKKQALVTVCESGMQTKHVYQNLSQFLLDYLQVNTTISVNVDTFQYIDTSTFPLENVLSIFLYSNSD

GITR ligand = target: T5, GITR ligand (UniProt Q9UNG2 52-177)
T5 sequence (looked up): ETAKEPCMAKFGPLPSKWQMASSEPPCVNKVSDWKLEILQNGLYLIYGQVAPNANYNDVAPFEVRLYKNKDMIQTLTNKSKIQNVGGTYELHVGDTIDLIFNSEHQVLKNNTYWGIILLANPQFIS

TL1A = target: T6, TL1A (UniProt O95150 72-251)
T6 sequence (looked up): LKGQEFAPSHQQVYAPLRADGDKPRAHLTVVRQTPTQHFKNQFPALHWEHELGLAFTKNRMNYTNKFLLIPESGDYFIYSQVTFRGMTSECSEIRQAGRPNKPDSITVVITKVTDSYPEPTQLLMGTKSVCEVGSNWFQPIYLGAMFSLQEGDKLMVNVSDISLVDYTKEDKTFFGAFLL

CD40 ligand = target: T7, CD40 ligand (UniProt P29965 113-261, limits assumed)
T7 sequence (looked up): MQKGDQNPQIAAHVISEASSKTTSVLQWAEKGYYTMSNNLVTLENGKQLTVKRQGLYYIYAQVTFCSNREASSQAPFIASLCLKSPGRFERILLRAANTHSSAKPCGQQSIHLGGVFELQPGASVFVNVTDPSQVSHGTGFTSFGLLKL

lymphotoxin a = target: T8, lymphotoxin a (UniProt P01374 35-205)
T8 construct: also called lymphotoxin alpha
T8 sequence (looked up): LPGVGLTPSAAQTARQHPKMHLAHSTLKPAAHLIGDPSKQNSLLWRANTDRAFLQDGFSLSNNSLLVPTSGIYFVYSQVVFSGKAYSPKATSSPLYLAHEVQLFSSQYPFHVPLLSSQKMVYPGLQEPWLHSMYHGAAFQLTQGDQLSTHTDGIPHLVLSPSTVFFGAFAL

LIGHT = LIGHT (UniProt O43557 74-240, limits assumed)
Sequence of LIGHT (O43557 74-240 limits assumed): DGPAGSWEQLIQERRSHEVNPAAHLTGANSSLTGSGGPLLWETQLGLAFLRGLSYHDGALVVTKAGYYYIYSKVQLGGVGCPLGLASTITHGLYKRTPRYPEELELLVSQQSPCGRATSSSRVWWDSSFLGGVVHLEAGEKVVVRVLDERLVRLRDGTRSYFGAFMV

APRIL = target: T9, APRIL (UniProt O75888 105-250)
T9 sequence (looked up): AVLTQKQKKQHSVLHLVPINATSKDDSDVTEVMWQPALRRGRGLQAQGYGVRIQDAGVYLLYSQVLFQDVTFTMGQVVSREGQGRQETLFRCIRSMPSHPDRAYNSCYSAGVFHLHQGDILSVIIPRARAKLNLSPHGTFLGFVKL

IL-17C = target: T10, IL-17C (UniProt Q9P0M4 19-197)
T10 sequence (looked up): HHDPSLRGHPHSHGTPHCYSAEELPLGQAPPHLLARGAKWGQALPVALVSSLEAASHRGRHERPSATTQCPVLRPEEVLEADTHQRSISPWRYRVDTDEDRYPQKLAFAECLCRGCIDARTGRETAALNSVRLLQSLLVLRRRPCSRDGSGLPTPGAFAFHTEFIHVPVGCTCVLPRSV

Fas ligand = target: T11, Fas ligand (UniProt P48023 134-281, limits assumed)
T11 sequence (looked up): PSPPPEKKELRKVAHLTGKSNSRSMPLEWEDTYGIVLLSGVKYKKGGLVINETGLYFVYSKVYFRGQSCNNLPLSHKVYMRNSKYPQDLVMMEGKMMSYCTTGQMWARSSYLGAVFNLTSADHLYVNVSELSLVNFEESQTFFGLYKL

EDA-A2 = target: T12, EDA-A2 (UniProt Q92838-3 245-389, limits assumed)
T12 sequence (looked up): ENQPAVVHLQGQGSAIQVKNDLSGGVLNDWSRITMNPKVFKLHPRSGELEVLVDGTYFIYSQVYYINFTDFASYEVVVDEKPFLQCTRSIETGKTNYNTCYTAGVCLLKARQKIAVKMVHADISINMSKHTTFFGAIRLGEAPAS

IL-17B = target: T13, IL-17B (UniProt Q9UHF5 21-180)
T13 sequence (looked up): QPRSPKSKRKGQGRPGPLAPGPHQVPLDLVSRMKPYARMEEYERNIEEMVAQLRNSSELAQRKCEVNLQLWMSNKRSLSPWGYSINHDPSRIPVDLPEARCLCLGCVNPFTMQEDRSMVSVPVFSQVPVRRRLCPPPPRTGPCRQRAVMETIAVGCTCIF

4-1BB ligand = 4-1BB ligand (UniProt P41273 71-254, limits assumed)
Sequence of 4-1BB ligand (P41273 71-254 limits assumed): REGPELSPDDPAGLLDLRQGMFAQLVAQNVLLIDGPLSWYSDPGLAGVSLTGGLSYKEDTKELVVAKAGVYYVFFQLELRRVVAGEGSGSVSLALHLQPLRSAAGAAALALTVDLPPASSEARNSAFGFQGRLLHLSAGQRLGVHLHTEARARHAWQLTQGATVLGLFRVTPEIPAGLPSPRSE

IL-17E (IL-25) = target: T14, IL-17E (IL-25) (UniProt Q9H293 33-177)
T14 sequence (looked up): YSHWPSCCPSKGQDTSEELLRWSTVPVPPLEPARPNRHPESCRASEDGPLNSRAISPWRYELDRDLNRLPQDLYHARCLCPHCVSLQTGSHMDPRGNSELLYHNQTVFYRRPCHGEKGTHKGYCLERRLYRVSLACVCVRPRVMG

Measured: binding result

B1: ABBV-257 anti-human TNF and IL-17 DVD-Ig binding protein (bispecific antibody, human IgG1, kappa, L234A L235A)
heavy: EVQLVQSGAEVKKPGASVKVSCKASGYTFANYGIIWVRQAPGQGLEWMGWINTYTGKPTYAQKFQGRVTMTTDTSTSTAYMELSSLRSEDTAVYYCARKLFTTMDVTDNAMDYWGQGTTVTVSSGGGGSGGGGSEVQLVQSGAEVKKPGSSVKVSCKASGYTFTDYEIHWVRQAPGQGLEWMGVNDPESGGTFYNQKFDGRVTLTADESTSTAYMELSSLRSEDTAVYYCTRYSKWDSFDGMDYWGQGTTVTVSSASTKGPSVFPLAPSSKSTSGGTAALGCLVKDYFPEPVTVSWNSGALTSGVHTFPAVLQSSGLYSLSSVVTVPSSSLGTQTYICNVNHKPSNTKVDKKVEPKSCDKTHTCPPCPAPEAAGGPSVFLFPPKPKDQLMISRTPEVTCVVVDVSHEDPEVKFNWYVDGVEVHNAKTKPREEQYNSTYRVVSVLTVLHQDWLNGKEYKCKVSNKALPAPIEKTISKAKGQPREPQVYTLPPSREEMTKNQVSLTCLVKGFYPSDIAVEWESNGQPENNYKTTPPVLDSDGSFFLYSKLTVDKSRWQQGNVFSCSVLHEALHNHYTQKSLSLSPGK
light: DIQMTQSPSSLSASVGDRVTITCRASQDISQYLNWYQQKPGKAPKLLIYYTSRLQSGVPSRFSGSGSGTDFTLTISSLQPEDFATYFCQQGNTWPPTFGQGTKLEIKRGGSGGGGSGDIQMTQSPSSLSASVGDRVTITCRASSGIISYIDWFQQKPGKAPKRLIYATFDLASGVPSRFSGSGSGTDYTLTISSLQPEDFATYYCRQVGSYPETFGQGTKLEIKRTVAAPSVFIFPPSDEQLKSGTASVVCLLNNFYPREAKVQWKVDNALQSGNSQESVTEQDSKDSTYSLSSTLTLSKADYEKHKVYACEVTHQGLSSPVTKSFNRGEC
modifications: N-linked glycans on the heavy chain at the asparagine commonly modified on IgG1 antibodies (fucosylated biantennary oligosaccharides with 0, 1 or 2 galactose residues)
notes: It says the constant region carries L234A, L235A and also T250Q and M428L; also called Anti-IL-17/TNF DVD-Ig Protein
no binding: all assays above
